# According to US20220204603A1 (PHARMABCINE, published 2022):
# Positions count from the first letter of the chain named.
# T1: mouse Ang2 (construct not stated) (mouse, UniProt O35608 19-496, limits assumed)
# T1 construct: also called mAng2
# T1 sequence (looked up): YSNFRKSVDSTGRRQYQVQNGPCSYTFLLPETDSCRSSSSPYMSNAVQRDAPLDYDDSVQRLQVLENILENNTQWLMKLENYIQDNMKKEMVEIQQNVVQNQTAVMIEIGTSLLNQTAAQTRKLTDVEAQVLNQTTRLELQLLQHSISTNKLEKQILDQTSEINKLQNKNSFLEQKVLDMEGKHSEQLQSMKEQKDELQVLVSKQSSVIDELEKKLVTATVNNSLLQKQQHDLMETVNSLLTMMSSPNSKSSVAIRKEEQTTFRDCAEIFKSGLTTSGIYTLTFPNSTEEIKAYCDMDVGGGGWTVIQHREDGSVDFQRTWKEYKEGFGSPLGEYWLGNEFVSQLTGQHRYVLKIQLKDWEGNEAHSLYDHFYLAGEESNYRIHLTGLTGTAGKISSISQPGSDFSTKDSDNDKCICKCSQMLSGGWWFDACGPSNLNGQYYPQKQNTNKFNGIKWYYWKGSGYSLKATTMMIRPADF
# T2: Ang2 immobilized on a biosensor (Octet off-rate screening) (Homo sapiens (Human), UniProt O15123 19-496)
# T2 construct: also called Ang2 antigen; not shown: It is a His tag if hAng2-his (R&D 623-AN/CF) was used, or an Fc if hAng2-Fc (PharmAbcine) was used
# T2 sequence: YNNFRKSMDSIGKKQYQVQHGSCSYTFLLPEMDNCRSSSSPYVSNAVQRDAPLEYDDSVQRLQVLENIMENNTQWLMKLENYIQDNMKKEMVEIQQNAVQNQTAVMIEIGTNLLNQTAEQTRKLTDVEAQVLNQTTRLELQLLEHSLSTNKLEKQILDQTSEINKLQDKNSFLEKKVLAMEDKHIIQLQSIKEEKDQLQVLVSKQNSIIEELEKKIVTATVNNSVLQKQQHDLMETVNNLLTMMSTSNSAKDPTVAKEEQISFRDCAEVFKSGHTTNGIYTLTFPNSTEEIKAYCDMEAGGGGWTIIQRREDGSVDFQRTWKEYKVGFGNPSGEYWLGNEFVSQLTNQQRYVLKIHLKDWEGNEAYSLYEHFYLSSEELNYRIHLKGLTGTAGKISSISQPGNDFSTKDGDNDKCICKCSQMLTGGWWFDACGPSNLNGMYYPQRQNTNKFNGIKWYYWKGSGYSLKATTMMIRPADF
# T3: mAng1-Fc (PharmAbcine) (mouse, UniProt O08538 20-498, limits assumed)
# T3 construct: In-house (PharmAbcine) Fc fusion; not shown: Fc part
# T3 sequence (looked up): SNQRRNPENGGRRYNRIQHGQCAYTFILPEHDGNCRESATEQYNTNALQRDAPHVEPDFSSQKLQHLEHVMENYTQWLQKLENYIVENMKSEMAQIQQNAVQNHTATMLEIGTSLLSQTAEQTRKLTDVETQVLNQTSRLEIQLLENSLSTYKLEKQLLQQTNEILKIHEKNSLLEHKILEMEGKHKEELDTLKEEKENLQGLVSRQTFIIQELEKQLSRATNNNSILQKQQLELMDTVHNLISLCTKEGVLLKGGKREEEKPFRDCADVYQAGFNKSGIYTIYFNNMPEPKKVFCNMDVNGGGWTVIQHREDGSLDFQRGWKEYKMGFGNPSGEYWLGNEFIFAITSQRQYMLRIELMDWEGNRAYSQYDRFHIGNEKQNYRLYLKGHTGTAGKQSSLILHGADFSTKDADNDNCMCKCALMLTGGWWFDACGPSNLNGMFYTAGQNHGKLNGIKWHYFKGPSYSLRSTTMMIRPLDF
# B1: No. O10 optimized clone (screening of scFv phage library of No. 8 CDR3 variants) (scFv, V domains shown)
# VH: QVQLVESGGGLVKPGGSLRLSCAASGFTFSSYSMNWVRQAPGKGLEWVSSISASDGATYYADSVRGRFTISRDNSRSTLYLQMNSLRAEDTAVYYCAKILVGYSGPMGGMDVWGQGTTVTVSS
# VL: DIQMTQSPSSLSASVGDRVTITCRASRDISNYLAWYQQKPGKAPKSLIYGASNLQSGVSSQFSGSGSGTDFTLTINSLQPEDSATYYCQQYYSYPLTFGGGTKVDIKR
# B2: No. 41 monoclonal scFv phage (scFv, V domains shown, not shown: large carriers)
# VH: QVQLVESGGGLVQPGGSLRLSCEASGFAFGRYEMNWVRQAPGKGLEWIAYIDTGGGAKVYADSVKGRFTISRDDSKNSLYLQMNSLRAEDTAVYYCTTEGLMNGLHFDMWGQGTMITVSS
# VL: DIQMTQSPSTLSASVGDRVAITCRASQAISTWLAWYQQKPGKAPKLLIYTASTLESGVPSRFSGSGSGTDFTLTINSLQPDDFATYYCQQLNSYPYTFGGGTKVEIKR
# modifications: scFv linker; phage coat protein fusion
# B3: No. 41 candidate antibody expressed in the form of scFv (scFv, V domains shown)
# VH: B2 VH
# VL: B2 VL
# B4: No. 3 monoclonal scFv phage (scFv, V domains shown, not shown: large carriers)
# VH: QMQLVQSGGGLVQPGRSLKLSCAASGFSFDDYAMHWVRQAPGKGLEWVATIKDDGSQTYYVDSVKGRFTISRDNAKSSLFLQMNSLRAEDTAVYYCTTEGLMNGLHFDMWGQGTMVTVSS
# VL: LVLTQPPSVSGAPGQGVTISCTGSSSNIGAGYDVHWYQQFPGTAPKLLISGNNNRPSGLPDRFSGSKSGTSASLAITGLQAEDEADYYCQSYDSRLGVVFGGGTKLTVLG
# modifications: scFv linker; phage coat protein fusion
# B5: No. 3 candidate antibody expressed in the form of scFv (scFv, V domains shown)
# VH: B4 VH
# VL: B4 VL
# B6: No. 4 candidate antibody expressed in the form of scFv (scFv, V domains shown)
# VH: QVQLVESGAEVKRPGESLRISCKTSGYSFTSYWIHWVRQMPGKELEWMGSIYPGNSDTRYSPSFQGHVTISADSSSSTAYLQWSSLKASDTAMYYCTTEGLMNGLHFDMWGQGTMVTVSS
# VL: DIVMTQTPLSLPVTPGEPASISCRSSQSLLHSLGDNYLDWYLQKPGQSPQLLIYLGSKRAAGVPDRFSGSGSGTDFTLKISRVEAEDVGVYYCMQSLQTPPYTFGQGTKLEIKR
# B7: No. 41 monoclonal scFv phage (scFv)
# chain: QVQLVESGGGLVQPGGSLRLSCEASGFAFGRYEMNWVRQAPGKGLEWIAYIDTGGGAKVYADSVKGRFTISRDDSKNSLYLQMNSLRAEDTAVYYCTTEGLMNGLHFDMWGQGTMITVSSDIQMTQSPSTLSASVGDRVAITCRASQAISTWLAWYQQKPGKAPKLLIYTASTLESGVPSRFSGSGSGTDFTLTINSLQPDDFATYYCQQLNSYPYTFGGGTKVEIKR
# B8: No. 46 monoclonal scFv phage (scFv)
# chain: QVQLVESGGGLVQPGRSLRLSCAASGFTFDDCAMHWVRQAPGKGLEWVSGISGNSKNVAYADSVKGRFSISRDDAKNSLYLQMNSLRAEDTAVYYCARDPAYSQFDYWGQGTLITVSSQSALTQPPSLSATPGQRVTISCSGSSSNVGGYPVNWYQQVPGAAPKLLMYTDYKRPSGVPDRFFGSKSGTSASLAISGLQSEDEADYYCATWDDNLNGYVFGTGTKVTVLG
# B9: No. 8 monoclonal scFv phage (scFv)
# chain: QVQLVESGGGLVKPGGSLRLSCAASGFTFSSYSMNWVRQAPGKGLEWVSSISASDGATYYADSVRGRFTISRDNSRSTLYLQMNSLRAEDTAVYYCAKILAGYSGPMGGMDVWGQGTTVTVSSDIQMTQSPSSLSASVGDRVTITCRASRDISNYLAWYQQKPGKAPKSLIYGASNLQSGVSSQFSGSGSGTDFTLTINSLQPEDSATYYCQQYYSYPLTFGGGTKVDIKR
# B10: No. O4 scFv, optimized anti-Ang2 scFv antibody expressed in E. coli (pET-22b), refolded and purified (scFv, part only; not given: scFv linker and His tag, not shown: small tags and cut ends)
# scFv, part: B9 chain with I99T
# B11: No. 8 candidate antibody expressed in the form of scFv (scFv)
# chain: B9 chain
# B12: No. 46 monoclonal scFv phage (scFv, V domains shown, not shown: large carriers)
# VH: QVQLVESGGGLVQPGRSLRLSCAASGFTFDDCAMHWVRQAPGKGLEWVSGISGNSKNVAYADSVKGRFSISRDDAKNSLYLQMNSLRAEDTAVYYCARDPAYSQFDYWGQGTLITVSS
# VL: QSALTQPPSLSATPGQRVTISCSGSSSNVGGYPVNWYQQVPGAAPKLLMYTDYKRPSGVPDRFFGSKSGTSASLAISGLQSEDEADYYCATWDDNLNGYVFGTGTKVTVLG
# modifications: scFv linker; phage coat protein fusion
# B13: No. 46 candidate antibody expressed in the form of scFv (scFv, V domains shown)
# VH: B12 VH
# VL: B12 VL
# B14: No. 4 monoclonal scFv phage (scFv)
# chain: QVQLVESGAEVKRPGESLRISCKTSGYSFTSYWIHWVRQMPGKELEWMGSIYPGNSDTRYSPSFQGHVTISADSSSSTAYLQWSSLKASDTAMYYCTTEGLMNGLHFDMWGQGTMVTVSSDIVMTQTPLSLPVTPGEPASISCRSSQSLLHSLGDNYLDWYLQKPGQSPQLLIYLGSKRAAGVPDRFSGSGSGTDFTLKISRVEAEDVGVYYCMQSLQTPPYTFGQGTKLEIKR
# Experiments:
# [1] = biological target: T1, mouse Ang2 (construct not stated); experiment: SPR Biacore T200, antibody captured on protein A chip, Ang2 as analyte, 1:1 model
# Experimental: To analyze the binding affinity of the selected anti-Ang2 antibodies, affinity analysis for human Ang2 and mouse Ang2 was performed using BIACORE® T200 (GE Healthcare). A protein A sensor chip was used, and an experiment was conducted in accordance with the manufacturer's manual. Detailed analysis conditions are as follows. 2000 response units (RU) of protein A were immobilized, 25 RU of anti-Ang2 antibody candidates were used for binding, and various concentrations of human Ang2 and mouse Ang2 were allowed to bind. The starting concentrations for analysis are 100 nM and 150 nM, respectively. The analysis proceeded at a flow rate of 30 μl/min, the binding and dissociation time of human Ang2 was measured as 300 seconds and 2000 seconds, respectively, and the binding and dissociation time of mouse Ang2 was analyzed as 300 seconds and 1000 seconds, respectively. Analysis was performed using a 1:1 binding model as an analytical model.
# [2] = biological target: T1, mouse Ang2 (construct not stated); experiment: competition ELISA: antibody preincubated with mAng2, binding to coated mouse Tie2-Fc
# [3] = biological target: T2, Ang2 immobilized on a biosensor (Octet …); experiment: dissociation rate screening of optimized clones (method as in Example 3, Octet; not restated)
# [4] = biological target: hAng2-Fc (PharmAbcine) (human) (UniProt O15123); experiment: phage ELISA, antigen coated at 1 µg/ml, anti-M13-HRP
# [5] = biological target: T2, Ang2 immobilized on a biosensor (Octet …); experiment: Octet (BLI), Ang2 immobilized on biosensor, scFv in solution
# mAng1-Fc (PharmAbcine) = biological target: T3, mAng1-Fc (PharmAbcine); experiment: phage ELISA, antigen coated at 1 µg/ml, anti-M13-HRP
# [6] = biological target: human Ang2 (construct not stated) (human) (UniProt O15123); experiment: Octet (BLI), scFv immobilized on biosensor, human Ang2 in solution
molecule,measurement,setting,value
nesvacumab (antibody),Kd,[1],0.262 nM
same,koff,[1],5.51e-05 s⁻¹
same,kon,[1],210000 M⁻¹ s⁻¹
same,IC50,[2],10.4 nM
B1,koff,[3],3.92e-05 s⁻¹
B2,OD,[4],0.825 OD
B3,koff,[5],1.08e-05 s⁻¹
B4,OD,[4],1.9 OD
B5,koff,[5],0.000642 s⁻¹
B6,koff,[5],0.000212 s⁻¹
B7,OD,mAng1-Fc (PharmAbcine),0.111 OD
B8,OD,mAng1-Fc (PharmAbcine),0.061 OD
B9,OD,[4],1.36 OD
same,OD,mAng1-Fc (PharmAbcine),0.199 OD
B10,Kd,[6],0.28 nM
same,koff,[6],2.54e-05 s⁻¹
same,kon,[6],94000 M⁻¹ s⁻¹
B11,koff,[5],< 1e-07 s⁻¹
B12,OD,[4],1.19 OD
B13,koff,[5],6.14e-05 s⁻¹
B14,OD,[4],0.835 OD
same,OD,mAng1-Fc (PharmAbcine),0.093 OD
